Broadly, the Kd is the equilibrium constant for the complex coming apart.

For 43 sequences, Kd results are on record in the Immune Epitope Database (IEDB).

One experiment deals with HLA-B*44:03. Briefly: IEDB peptide-MHC binding, purified MHC/competitive/radioactivity; filed as Kd, often an IC50 or EC50 that approximates it; ≥ and ≤ were set here for values at or beyond the usual limits of such assays.
Experiment [1] has as its target HLA-B*40:01. The description is as above.
Experiment [2] concerns the target HLA-B*44:02. The description is as above.
The next experiment concerns the target HLA-B*35:01. The experiment is described as above.
For a further experiment, the target named is HLA-B*51:01. Described as above.
For the next experiment, the target named is HLA-A*32:01. The description is as above.
Another experiment addresses HLA-A*30:01. Described as above.
A further experiment concerns the target HLA-B*53:01. The experiment is described as above. To be noted: source organism: Dengue virus 2 Jamaica/1409/1983.
Experiment [3] concerns the target HLA-B*07:02. The description is as above.
Experiment [4] concerns the target HLA-A*01:01. The experiment is described as above.
The target in another experiment is HLA-A*30:02. The experiment is described as above.
A further experiment addresses HLA-A*29:02. The description is as above.
Experiment [5] concerns the target HLA-A*26:01. The experiment is described as above.
The target in a further experiment is HLA-B*18:01. Nature of the experiment: IEDB peptide-MHC binding, purified MHC/direct/fluorescence; filed as Kd, often an IC50 or EC50 that approximates it; ≥ and ≤ were set here for values at or beyond the usual limits of such assays. The following applies: source organism: Bacillus cereus H3081.97.
The target of a further experiment is HLA-A*02:06. Briefly: IEDB peptide-MHC binding, purified MHC/competitive/radioactivity; filed as Kd, often an IC50 or EC50 that approximates it; ≥ and ≤ were set here for values at or beyond the usual limits of such assays.
Another experiment addresses HLA-A*02:03. The description is as above. The following applies: source organism: Vaccinia virus WR.
In the next experiment the target is HLA-A*02:02. The experiment is described as above. The following applies: source organism: Vaccinia virus WR.
A further experiment concerns the target HLA-B*08:01. Nature of the experiment: IEDB peptide-MHC binding, purified MHC/direct/fluorescence; filed as Kd, often an IC50 or EC50 that approximates it; ≥ and ≤ were set here for values at or beyond the usual limits of such assays. The following applies: source organism: Coxiella burnetii.
A further experiment addresses HLA-A*02:01. The experiment is described as above. To be noted: source organism: Coxiella burnetii.
Another experiment concerns the target HLA-B*27:05. The experiment is described as above. To be noted: source organism: Coxiella burnetii.
The target in another experiment is HLA-B*58:01. Described as above. To be noted: source organism: Coxiella burnetii.
Experiment [6] deals with HLA-A*01:01. The experiment is described as above. The following applies: source organism: Coxiella burnetii.
The next experiment has as its target HLA-A*69:01. The description is as above. The following applies: source organism: Coxiella burnetii.
A further experiment addresses HLA-A*03:01. Described as above. The following applies: source organism: Coxiella burnetii.
For experiment [7], the target named is HLA-A*26:01. Described as above. The following applies: source organism: Coxiella burnetii.
A further experiment addresses HLA-A*31:01. The experiment is described as above. To be noted: source organism: Coxiella burnetii.
Experiment [8] deals with HLA-B*40:01. Described as above. To be noted: source organism: Coxiella burnetii.
A further experiment concerns the target HLA-A*11:01. Described as above. The following applies: source organism: Coxiella burnetii.
The target in a further experiment is HLA-B*15:01. The description is as above. To be noted: source organism: Coxiella burnetii.
Experiment [9] has as its target HLA-B*44:02. The description is as above. The following applies: source organism: Coxiella burnetii.
The target in experiment [10] is HLA-B*07:02. The description is as above. The following applies: source organism: Coxiella burnetii.
The mark [11] stands for this setting: source organism: Dengue virus 3 Martinique/1243/1999.
Setting [12] is: source organism: Dengue virus 2 Jamaica/1409/1983.
[13] abbreviates: source organism: Vaccinia virus WR.
Where [14] appears, read: source organism: Dengue virus 1 Brazil/97-11/1997.
Where [15] appears, read: source organism: Lymphocytic choriomeningitis virus (strain WE).
Where [16] appears, read: source organism: Dengue virus 4 Philippines/H241/1956.
Setting [17] is: source organism: Mammarenavirus brazilense.
Where [18] appears, read: source organism: Dengue virus 2 Peru/IQT2913/1996.
[19] abbreviates: source organism: Mammarenavirus guanaritoense.
[20] abbreviates: source organism: Dengue virus 1 Singapore/S275/1990.

On to AEMEEALKGL, for which the figures for the Kd with HLA-B*44:03 (setting [11]), with HLA-B*40:01 [1] (setting [11]) and with HLA-B*44:02 [2] (setting [11]) were 56.2 nM, 15.5 nM and 26 nM, respectively.
As for LPVWLAYRVA, the Kd with HLA-B*35:01 (setting [12]) is 311 nM; with HLA-B*51:01 (setting [12]), 4990 nM.
In the case of EEIAVQNWL, the Kd is 10.6 nM in the experiment with HLA-B*44:03 (setting [12]), 14.8 nM with HLA-B*40:01 [1] (setting [12]) and 6.91 nM with HLA-B*44:02 [2] (setting [12]).
As for VEDYGFGVF, in the experiment with HLA-B*40:01 [1] (setting [12]), the Kd stood at 315 nM.
As to RSTSLSVSL, the Kd with HLA-A*32:01 (setting [12]) amounted to 100 nM.
As to IIWKGIYTY, the dissociation constant Kd with HLA-A*32:01 (setting [13]) was 3.28 nM.
In the case of VEKVETWAL, the Kd with HLA-B*40:01 [1] (setting [11]) came to 14.9 nM.
Consider WMVHRQWFFD, for which the Kd with HLA-A*32:01 (setting [11]) came out at 4960 nM.
As for AETQNSSFI, the equilibrium dissociation constant (Kd) turned out to be 123 nM with HLA-B*44:03 (setting [11]), 142 nM with HLA-B*40:01 [1] (setting [11]) and 2.67 nM in the experiment with HLA-B*44:02 [2] (setting [11]).
Take TLKRRSWPLN: the figures for the Kd with HLA-A*32:01 (setting [11]) and with HLA-A*30:01 (setting [11]) were 19100 nM and 5450 nM, respectively.
For FEEVMRGKFG, the Kd with HLA-B*40:01 [1] (setting [11]) came to 1340 nM.
In the case of KPTLDFELI, the Kd with HLA-B*51:01 (setting [12]) was not below 31200 nM; with HLA-B*53:01, 279 nM.
For the sequence EEVQVLALE, in the experiment with HLA-B*44:03 (setting [12]), the Kd was 10500 nM.
On to MPIRYQTTAV, for which the dissociation constant (Kd) with HLA-B*35:01 (setting [14]) worked out at 48 nM; with HLA-B*51:01 (setting [14]), 347 nM; with HLA-B*07:02 [3] (setting [14]), 11.3 nM.
In the case of MTKEASREY, the Kd was not below 56800 nM with HLA-A*32:01 (setting [15]); 3010 nM with HLA-A*01:01 [4] (setting [15]); 67.5 nM in the experiment with HLA-A*30:02 (setting [15]); 616 nM with HLA-A*29:02 (setting [15]); 17.7 nM in the experiment with HLA-A*26:01 [5] (setting [15]); 108 nM with HLA-A*30:01 (setting [15]).
Take NEMILMKMK: the results for the Kd with HLA-B*44:03 (setting [16]) and with HLA-B*44:02 [2] (setting [16]) were 2910 nM and 400 nM, respectively.
Consider LINERDYSRY, for which the Kd is not below 69900 nM in the experiment with HLA-A*32:01 (setting [17]); 1030 nM in the experiment with HLA-A*01:01 [4] (setting [17]); 633 nM with HLA-A*30:02 (setting [17]); 16500 nM with HLA-A*29:02 (setting [17]); 1930 nM with HLA-A*26:01 [5] (setting [17]); not below 70400 nM in the experiment with HLA-A*30:01 (setting [17]).
For the sequence WIEDNPWMED, the Kd with HLA-A*32:01 (setting [11]) amounted to 4160 nM.
Consider GESSPNPTV, for which the Kd was 15.6 nM with HLA-B*40:01 [1] (setting [18]) and 321 nM in the experiment with HLA-B*44:02 [2] (setting [18]).
Regarding LEKHGAERL, the Kd with HLA-B*40:01 [1] (setting [14]) is 23.7 nM.
As to GTFHTMWHVT, in the experiment with HLA-A*32:01 (setting [12]), the Kd was 13400 nM.
Consider AEISGSSPI, for which the dissociation constant Kd with HLA-B*44:03 (setting [12]) was determined as 25.5 nM; in the experiment with HLA-B*40:01 [1] (setting [12]), 0.66 nM; in the experiment with HLA-B*44:02 [2] (setting [12]), 14.6 nM.
Regarding ESALNISGY, the Kd with HLA-A*32:01 (setting [19]) is not below 77800 nM; with HLA-A*01:01 [4] (setting [19]), 37.4 nM; with HLA-A*30:02 (setting [19]) it was 733 nM; in the experiment with HLA-A*29:02 (setting [19]) it was not below 35400 nM; in the experiment with HLA-A*26:01 [5] (setting [19]), 118 nM; with HLA-A*30:01 (setting [19]), not below 67300 nM.
For the sequence NDMISYGGGW, the results for the Kd in the experiment with HLA-B*44:03 (setting [16]) and in the experiment with HLA-B*44:02 [2] (setting [16]) were 71.2 nM and 6.18 nM, respectively.
For RLNQPVNNI, the Kd in the experiment with HLA-A*32:01 (setting [13]) is 25 nM.
For KTKRILPSI, the values for the Kd with HLA-A*32:01 (setting [16]) and with HLA-A*30:01 (setting [16]) were 125 nM and 6.75 nM, respectively.
FIRSTMPLVM: the dissociation constant Kd with HLA-B*35:01 (setting [16]) is 2960 nM.
MEAQLIRQM: the figures for the Kd with HLA-B*44:03 (setting [12]), with HLA-B*40:01 [1] (setting [12]) and with HLA-B*44:02 [2] (setting [12]) were 119 nM, 802 nM and 11.2 nM, respectively.
Consider FPVQFFIVF, for which the Kd in the experiment with HLA-B*18:01 is not below 20000 nM.
For KEISNMLSII, the values for the dissociation constant Kd with HLA-B*44:03 (setting [11]), in the experiment with HLA-B*40:01 [1] (setting [11]) and in the experiment with HLA-B*44:02 [2] (setting [11]) were 267 nM, 52.2 nM and 29.4 nM, respectively.
As to HPGFTIMAAI, the Kd in the experiment with HLA-B*51:01 (setting [12]) is 5710 nM; in the experiment with HLA-B*53:01, 66.5 nM; with HLA-B*07:02 [3] (setting [12]) it was 29.5 nM.
As to LINLTTIAY, the equilibrium dissociation constant (Kd) came to 8970 nM with HLA-A*32:01 (setting [17]); 576 nM in the experiment with HLA-A*01:01 [4] (setting [17]); 1450 nM with HLA-A*30:02 (setting [17]); 345 nM with HLA-A*29:02 (setting [17]); 12200 nM with HLA-A*26:01 [5] (setting [17]); 9390 nM with HLA-A*30:01 (setting [17]).
Regarding LLLVTHYAI, the Kd in the experiment with HLA-A*32:01 (source organism: Dengue virus 3 Singapore/8120/1995) is 41.6 nM.
With GEVDSFSLGL, the Kd in the experiment with HLA-B*44:03 (setting [20]) turned out to be 158 nM; with HLA-B*40:01 [1] (setting [20]), 2.13 nM.
Regarding GEGLHKLGY, the results for the Kd with HLA-B*44:03 (setting [12]) and with HLA-B*44:02 [2] (setting [12]) were 280 nM and 120 nM, respectively.
KELEGILLP: the Kd with HLA-B*44:03 (source organism: Homo sapiens) turned out to be 356 nM.
As for LSNGASLTI, the Kd with HLA-A*32:01 (setting [13]) is 73.5 nM.
Regarding IGVIITWIGM, the Kd in the experiment with HLA-A*32:01 (setting [12]) is not below 59000 nM.
Turning to FTLTVAWRTA, the Kd came to 9400 nM with HLA-A*32:01 (setting [11]) and 376 nM with HLA-A*02:06 (setting [11]).
Consider IVYGRSNAI, for which the dissociation constant (Kd) came out at 3.15 nM in the experiment with HLA-A*32:01 (setting [13]), 15.8 nM with HLA-A*02:03, 30.2 nM with HLA-A*02:06 (setting [13]) and 14.9 nM with HLA-A*02:02.
Regarding EEMPLVWDL, the Kd with HLA-B*08:01, in the experiment with HLA-A*02:01, with HLA-B*27:05, in the experiment with HLA-B*58:01, in the experiment with HLA-A*01:01 [6] and with HLA-A*69:01 was not below 20000 nM each time. In addition, the Kd with HLA-A*03:01 is not below 20000 nM; with HLA-A*26:01 [7], not below 20000 nM; with HLA-A*31:01, not below 20000 nM; with HLA-B*40:01 [8], 18.9 nM; in the experiment with HLA-A*11:01, not below 20000 nM; with HLA-B*15:01 it was not below 20000 nM. Besides, the Kd with HLA-B*44:02 [9] was 9330 nM; with HLA-B*07:02 [10] it was not below 20000 nM.
Regarding VATTFVTPM, the Kd in the experiment with HLA-B*35:01 (setting [12]) was found to be 205 nM.
DEDCAHWKEA: the dissociation constant Kd in the experiment with HLA-A*32:01 (setting [12]) was not below 69900 nM.
